Test results taken from the nanobody polyreactivity screen of Harvey et al. (2022).

Test: yeast display, Sf9 membrane polyspecificity reagent, FACS + sequencing; frameworks hold sequencing errors
Procedure, shortened: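 Galactose induction of a Saccharomyces cerevisiae BJ5465 synthetic nanobody display library ran 36–48 hours. The cells were then stained for 1 hour at 4 °C with 10% biotinylated, detergent-solubilized Sf9 membrane reagent, pulled down on streptavidin microbeads and FACS-sorted into low and high (top ~1%) gates on expression and reagent-binding fluorescence. Labels for polyreactivity follow the gate of origin.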

Sequence: QVQLVESGGGLVQAGGSLRLSCAASGSIFRQYAMGWYRQAPGKERELVAAITYSGGNTYYADSVKGRFTISRDNAKNTVYLQMNSLKPEDTAVYYCAADYGSRSWEYNYWGQGTQVTVSS
- polyreactivity (PSR sort gate): low polyreactivity

Sequence: QVQLVESGGGLVQAGGSLRLSCAASGSIFRQYAMGWYRQAPGKERELVATISRSGGSTYYADSVKGRFTISRDNAKNTVYLQMNSLKPEDTAVYYCAASRYNKSYREWWVGSWGQGTQVTVSS
- polyreactivity (PSR sort gate): high polyreactivity

Sequence: QVQLVESGGGLVQAGGSLRLSCAASGSIFRRNAMGWYRQAPAKERDLVAAISVRGGSTYYAYSVKGRFTISRDLAKNTVYLQMISLKPEDTAVYYCAADEFDDYDWYRGYDSTYDYWGQGTQVTVST
- polyreactivity (PSR sort gate): low polyreactivity

Sequence: QVQLVESGGGLVQAGGSLRLSCAASGSIFRRNAMGWYRQAPGKERELVAAINSGGTTYYADSVKGRFTNSRDNAKNTVYLQMNSLKPEVTAVYYCATVYRGWYYYWGQGTQVTVSS
- polyreactivity (PSR sort gate): high polyreactivity

Sequence: QVQLVESGGGLVQAGGSLRLSCAASGSIFRRNAMGWYRQAPGKERELVAAISIRGGSTYYADSVKGRFTISRDNAKNTVYLQMNSLKPEDTAVYYCNAKFRKADYDYWGQGTQVTVSS
- polyreactivity (PSR sort gate): high polyreactivity

Sequence: QVQLVESGGGLVQAGGSLRLSCAASGSIFRRNAMGWYRQAPGKERELVATITSDGSTDYADSVKGRFTISRDNAKNTFYLQMISLKPEDTAVYYCAVAYLWRPYDFREFDYWGQGTQVTLSS
- polyreactivity (PSR sort gate): low polyreactivity

Sequence: QVQLVESGGGLVQAGGSLRLSCAASGSIFRRNAMGWYRQAPGTERELVAAISLRGGSTYYADSVKGRFTISRDLAKNTVYLQMISLKTQDTAVYYCADDEFDDYDWYRGYDTTYDYWGQGTQVTGSS
- polyreactivity (PSR sort gate): low polyreactivity

Sequence: QVQLVESGGGLVQAGGSLRLSCAASGSIFRRYAMGWYRQAPGKEREFVAAITGSGGRTYYADSVKGRFTISRDNAKNTVYLQMNSLKPEDTAVYYCAARRRDRVTYYYWGQGTQVTVSS
- polyreactivity (PSR sort gate): high polyreactivity

Sequence: QVQLVESGGGLVQAGGSLRLSCAASGSIFRRYAMGWYRQAPGKERELVAGISSGGYTNYADSVKGRFTISRDNAKNTVYLQMNRLKPEDTAVYYCAAKQYRYVRYRPVDYWGQGTQVTVSS
- polyreactivity (PSR sort gate): high polyreactivity

Sequence: QVQLVESGGGLVQAGGSLRLSCAASGSIFRRYAMGWYRQAPGKERELVATITSSVCRTYYADSVKARFTISRDTAKNTVYLQMNSLKPEETAVYFCAVYVGLWGAGGKGDYWGQGTQVTVSS
- polyreactivity (PSR sort gate): low polyreactivity

Sequence: QVQLVESGGGLVQAGGSLRLSCAASGSIFRRYAMGWYRQEPGKEMEFVAAITGSGGRTYYADSVKGRITISRDNAKNTVYLQMNSLKPEDTAVYYCAARRRDRVTYYYWGQGTQVTVSS
- polyreactivity (PSR sort gate): high polyreactivity

Sequence: QVQLVESGGGLVQAGGSLRLSCAASGSIFRRYAMGWYRQPPGKERELVASISSRGTRTYYADSVKGRFTISRDNAKNTVYLQMNSLKPEDTAVYYCAASYYTPYDYWGQGTQVTVSS
- polyreactivity (PSR sort gate): high polyreactivity

Sequence: QVQLVESGGGLVQAGGSLRLSCAASGSIFRSYAIGWYRQAPGKERELVASISRRGGSTYYADSVKGRFTISRDNAKNTVYLQMKSLKPEDTAVYYCAAVRYNSRVSTTPSEMYYWGQGTQVTVSS
- polyreactivity (PSR sort gate): low polyreactivity

Sequence: QVQLVESGGGLVQAGGSLRLSCAASGSIFRSYALGGYRQAPGKERELVASISRRGGSTYYADSVKGRFTISRDNAKNTVYLQMNSLKPQDTAVYYCAAVRYNSRGSTTPSEMYYWGQGTQVTVSS
- polyreactivity (PSR sort gate): low polyreactivity

Sequence: QVQLVESGGGLVQAGGSLRLSCAASGSIFRSYAMGWYRQAPGKERELVAAISSGGRTKYADSVKGRFTISRDNAKNTVYLQMNSLKPEDTAVYYCAARVNVKYYGFYYWGQGTQVTVSS
- polyreactivity (PSR sort gate): high polyreactivity

Sequence: QVQLVESGGGLVQAGGSLRLSCAASGSIFRSYAMGWYRQAPGKERELVAAITSSSGSTYYADSVKGRFTISRDNAKNTVYLQMNSLKPEDTAVYYCNAPYWKSRFRAYYHWGQGTQVTVSS
- polyreactivity (PSR sort gate): high polyreactivity

Sequence: QVQLVESGGGLVQAGGSLRLSCAASGSIFRTNTMGWYRQAPGKERELVAAITAIGDSTYYADSVKGRFTISRDNAKNTVYLQMNSLKPEDTAVYYCAAEKVSWGYHFYSSYDYWGQGTQVTVSS
- polyreactivity (PSR sort gate): low polyreactivity

Sequence: QVQLVESGGGLVQAGGSLRLSCAASGSIFRTYAMGWYIQAPGKERELVAAIRRSGGRTYYADSVKGRFTISRDNAKNTVYLQMNSLKPEDTAVYYCNKRVSKQSKYDYWGQGTQVTVSS
- polyreactivity (PSR sort gate): high polyreactivity

Sequence: QVQLVESGGGLVQAGGSLRLSCAASGSIFRTYAMGWYRQAPGKEWELVAAISGSGSRTYYADSVKGRFTISRDNAKNTVYLQMNSLKPEDTAVYYCAAQTFAYKVFFLYDYWGQGTQVTVSS
- polyreactivity (PSR sort gate): low polyreactivity

Sequence: QVQLVESGGGLVQAGGSLRLSCAASGSIFRTYVMGWYRQAPGKERELVAAISSSGGRTYYADSVKGRFTISRDNAKNTVYLLMNSLKPEDTAVYYCAAPRTSTRYRLTLQGVNQYDYWGQGTQVTVSS
- polyreactivity (PSR sort gate): high polyreactivity

Sequence: QVQLVESGGGLVQAGGSLRLSCAASGSIFRVYAMGWYRQAPGKERELVAAITNGGNTNYADSVKGRFTISRDNAKNTVYLQMNSLKPEDTAVYYCAATLHRYWYRLYYYWGQGTQVTVSS
- polyreactivity (PSR sort gate): high polyreactivity

Sequence: QVQLVESGGGLVQAGGSLRLSCAASGSIFRVYAMGWYRQAPGKERELVATISGSAGRTYYADSVKGRFTISRDNAKNTVYLQMNSLKPEDTAVYYCAARWYKEYYWGQGTQVTVSS
- polyreactivity (PSR sort gate): high polyreactivity

Sequence: QVQLVESGGGLVQAGGSLRLSCAASGSIFRWNAMGWYRQAPGKERELVAAISKSGGRRYYADSVKGRFTISRDNAKNTVYLQMNSVKPEDTAVYYCAAGYTTTQYYGPQYDYWGQGTQVTVSS
- polyreactivity (PSR sort gate): high polyreactivity

Sequence: QVQLVESGGGLVQAGGSLRLSCAASGSIFRWNAMGWYRQAPGKERELVAGIRWDSGSTYYADSVKGRFTISRDNAKNTVYLQMNSLKPEDTAVYYCAADLFDFLLIDGFAVVTYGYWGQGTQVNVSS
- polyreactivity (PSR sort gate): low polyreactivity

Sequence: QVQLVESGGGLVQAGGSLRLSCAASGSIFRWYAMGWSRQAPGKERELVAAISKSGGTTYYADSVKGRFTISRDNAKNTVYLQMNSLKPEDTAVYYCAARRYPYGGYGYRYDYWGQGTQVTVSS
- polyreactivity (PSR sort gate): high polyreactivity

Sequence: QVQLVESGGGLVQAGGSLRLSCAASGSIFRWYAMGWSRQAPGKERQLVAAIRGNGASTYYADSVKGRFTISRDNAKNTVYLQMNSLKPEDTAVYYCAAYPSFYHSQYGYWGQGTQVTVSS
- polyreactivity (PSR sort gate): high polyreactivity

Sequence: QVQLVESGGGLVQAGGSLRLSCAASGSIFRWYAMGWYRQAPGKERELVAGISSTGGSTYYADSVKGRFTISRDNAKNTVYLQMNSLKPEDTAVYYCAVVSYPSAFRRYNYWGQGTQVTVSS
- polyreactivity (PSR sort gate): high polyreactivity

Sequence: QVQLVESGGGLVQAGGSLRLSCAASGSIFRYNAMGWYRKAPGKEREFVAIISYSGVRTYYADSVKGRFTISRDNAKNTVYLQMNSLKPEDTAVYYCAADFKQKGHRTRTTYWGQGTKVTVSS
- polyreactivity (PSR sort gate): high polyreactivity

Sequence: QVQLVESGGGLVQAGGSLRLSCAASGSIFRYNAMGWYRKAPGKERELVAAIRSGGSTYYADSVKGRFTISRDNAKNTVYLQMNSLKPEDTAVYYCNARRYVGYDYWGQGTQVTVSS
- polyreactivity (PSR sort gate): high polyreactivity

Sequence: QVQLVESGGGLVQAGGSLRLSCAASGSIFRYNAMGWYRQAPGKEREFVAAITRSGGSTYADSVKGRFTISRDNAKNTVYLQMNSLKPEDTAVYYCAATFKWYSHTKPRFDYWGQGTQVTVSS
- polyreactivity (PSR sort gate): low polyreactivity

Sequence: QVQLVESGGGLVQAGGSLRLSCAASGSIFRYNAMGWYRQAPGKERELVAAIDWSGGTYYADSVKGRFTISRDNAKNTVYLQMNSLKPEDTAVYYCNARGSKYSSYWGYDYWGQGTQVTVSS
- polyreactivity (PSR sort gate): low polyreactivity

Sequence: QVQLVESGGGLVQAGGSLRLSCAASGSIFRYNAMGWYRQAPGKERELVAAISTSGGSTYYADSVKGRFTISRDNAKNTVYLQMNSLKPEDTAVYYCNKLRNSDSRGIVWYGYWGQGTQVTVSS
- polyreactivity (PSR sort gate): high polyreactivity

Sequence: QVQLVESGGGLVQAGGSLRLSCAASGSIFRYNAMGWYRQAPGKERELVAAITSGDSTYYADSVKGRFTISRDNAKNTVYLQMISLKPEDTAVYYCAADDWRPFDGYYPLKSEREYWGQGTEVTVSS
- polyreactivity (PSR sort gate): low polyreactivity

Sequence: QVQLVESGGGLVQAGGSLRLSCAASGSIFRYNAMGWYRQAPGKERELVAAITWSGGSTYYADSVKGRFTISRDNAKNSVYLQMNSLKPEDTAVYYCAASPYPHYRRYTGGFYYWGQGTQVTVSS
- polyreactivity (PSR sort gate): high polyreactivity

Sequence: QVQLVESGGGLVQAGGSLRLSCAASGSIFRYNAMGWYRQAPGKETELVAAISASGGRTHYADSVKGRFTISRDNAKNTVYLQMNSLKPEDTAVYYCAAATYRGTSLYGYWGQGTQVTVSS
- polyreactivity (PSR sort gate): high polyreactivity

Sequence: QVQLVESGGGLVQAGGSLRLSCAASGSIFRYNTMGWYRQAPGKERELVATITRRGGSTYYADSVKGRFTISRDNAKNTVYLQMNSLKPEDTAVYYCNADNFGGPYNYWGQGTQVTVSS
- polyreactivity (PSR sort gate): low polyreactivity

Sequence: QVQLVESGGGLVQAGGSLRLSCAASGSIFRYYAKGWYRHAPGKERELVAVISRSGTRTYYADSVKGRFTISRDNAKNTVYLQMNSLKPEDTAVYYCAAKDERRSFGMGYWGQGTQVTVSS
- polyreactivity (PSR sort gate): high polyreactivity

Sequence: QVQLVESGGGLVQAGGSLRLSCAASGSIFRYYAMGGYIQAPGKERELVAAISGDSGRTYYADSVKGRFTISRDNAKNTVYFQMNSLNPDDTAVYYCNARVAYRYRTGYDYWGQGTQVTVSS
- polyreactivity (PSR sort gate): high polyreactivity

Sequence: QVQLVESGGGLVQAGGSLRLSCAASGSIFRYYAMGWYIQAPGKERELVAAISYSGGTTYYADSVKGRFTISRDNAKNTVYLQMNSLKPEDTAVYYCAVPLIGVDGYAYDYWGQGTQVTVSS
- polyreactivity (PSR sort gate): low polyreactivity

Sequence: QVQLVESGGGLVQAGGSLRLSCAASGSIFRYYAMGWYRQAPGKEREFVASITYRGGRTYYADSVKGRFTISRDNAKNTVYLQMNSLKPEDTAVYYCAARTRAGAWTSKYLDYWGQGTQVTVSS
- polyreactivity (PSR sort gate): high polyreactivity

Sequence: QVQLVESGGGLVQAGGSLRLSCAASGSIFRYYAMGWYRQAPGKERELVAAISSSGGSTYYADSVKGRFTISRDNAKNTVYLQMNSLKPEDTAGYYCAAVYTQSNSATMYYWGQGTQVTVSS
- polyreactivity (PSR sort gate): high polyreactivity

Sequence: QVQLVESGGGLVQAGGSLRLSCAASGSIFRYYAMGWYRQAPGKERELVANISRGGRTYYADSVKGRFTISRDNAKYTVYLQLHSLNPEDTSVYYCAAGYWFSYSRVTRYDYWGQGTQVTVSS
- polyreactivity (PSR sort gate): high polyreactivity

Sequence: QVQLVESGGGLVQAGGSLRLSCAASGSIFRYYAMGWYRQAPGKETEFGADISASGGSTYYADSVKGRFTISRDNAQNTVYLQMNSLKPEDNAVYYWAARYSYRRPGGYQLGSWGQGTQVTVSS
- polyreactivity (PSR sort gate): high polyreactivity
